Reference: the RNAGym collection of RNA variant scans (doi:10.7554/elife.80360)

B1: Hairpin Ribozyme (parent)
chain: GUCCUCUUUCACGUGCGCGUGAAAGAGAGAAGUGAACCAGAGAAACACACGUUGUGGUAUAUUACCUGGUA

Variants of: B1
Test: self-cleavage, relative activity (ratio to wild type); higher = more cleavage; co-transcriptional
G25U A35C gave a self-cleavage of 0.691. For G25U G69U, the self-cleavage was 0.165. In the case of G25U G69C, the self-cleavage is reported as 0.0669. Work on A26U A28C yielded a self-cleavage of 0.155. Work on A26U A28U yielded a self-cleavage of 0.257. A26C A64G showed a self-cleavage of 0.539. Variant A26C A64U has a self-cleavage of 0.158. With A26C A28G the self-cleavage was 0.785. A24U G27A gave a self-cleavage of 0.334. Work on A26U G27C yielded a self-cleavage of 0.177. G25C G51A showed a self-cleavage of 0.591. In the case of A24G U67A, the self-cleavage is reported as 0.204. In the case of A24G G54C, the self-cleavage is reported as 0.458. Work on G25U G32U yielded a self-cleavage of 0.0897. G25U G32C gave a self-cleavage of 0.187. In the case of A26C A71G, the self-cleavage is reported as 1.01. With G25C A35G the self-cleavage was 0.578. Work on A26C G68C yielded a self-cleavage of 0.147. Work on G25C C46U yielded a self-cleavage of 0.0896. A24G U63A gave a self-cleavage of 0.231. With G25C A28C the self-cleavage was 0.214. In the case of A26G U58A, the self-cleavage is reported as 0.755. A26G U58G gave a self-cleavage of 0.693. With A26C U70G the self-cleavage was 0.509. Work on A26G A45C yielded a self-cleavage of 0.135. For G25C A64U, the self-cleavage was 0.134. G25A C50G gave a self-cleavage of 0.14. With A26U A30U the self-cleavage was 0.11. Variant A26C A47C has a self-cleavage of 0.199. G25C U53C gave a self-cleavage of 0.417. Work on G25C C50A yielded a self-cleavage of 0.214. For A24U G25C, the self-cleavage was 0.385. In the case of A24U G25A, the self-cleavage is reported as 0.219. In the case of A26C U53C, the self-cleavage is reported as 0.741. For A24G G68U, the self-cleavage was 0.273. Work on A24G G68C yielded a self-cleavage of 0.232. G25C U58A showed a self-cleavage of 0.308. In the case of G25C U58C, the self-cleavage is reported as 0.559. In the case of A24G U52A, the self-cleavage is reported as 1.12. In the case of G25C G27A, the self-cleavage is reported as 0.213. Work on A26C yielded a self-cleavage of 0.708. With A26G the self-cleavage was 0.901. Work on A26U yielded a self-cleavage of 0.683. G25A A31C gave a self-cleavage of 0.128. G25C G56A gave a self-cleavage of 0.149. In the case of G25C A71U, the self-cleavage is reported as 0.476. In the case of A26G A41G, the self-cleavage is reported as 1.13. In the case of A26G A41U, the self-cleavage is reported as 1.24. A24U C37A showed a self-cleavage of 0.304. Work on A26G C65A yielded a self-cleavage of 0.702. For G25U C48A, the self-cleavage was 0.143. Work on G25U C48U yielded a self-cleavage of 0.163. A26G G68A showed a self-cleavage of 0.309. A26U C50U showed a self-cleavage of 0.261. A24U A45U gave a self-cleavage of 0.159. In the case of A26C A45G, the self-cleavage is reported as 0.136. A26C A45U showed a self-cleavage of 0.182. Work on G25A A36U yielded a self-cleavage of 0.363. Variant A24U G51C has a self-cleavage of 0.805. In the case of A26U C37G, the self-cleavage is reported as 0.185. Variant A26U C37A has a self-cleavage of 0.243. G25C G40A gave a self-cleavage of 0.0978. Work on A24U U52G yielded a self-cleavage of 0.744. A24U U52A gave a self-cleavage of 0.925. For G25A G42A, the self-cleavage was 0.0699. Variant A24U C48U has a self-cleavage of 0.252. G25U U53C gave a self-cleavage of 0.689. In the case of G25U U53G, the self-cleavage is reported as 0.376. In the case of G25A A64C, the self-cleavage is reported as 0.23. G25A A64U gave a self-cleavage of 0.173. For A24G G56A, the self-cleavage was 0.187. G25A A45U showed a self-cleavage of 0.111. A26G A59U showed a self-cleavage of 0.233. A26C G29C showed a self-cleavage of 0.136. In the case of A26C G29A, the self-cleavage is reported as 0.149. With A26C G29U the self-cleavage was 0.109. A26C C66U gave a self-cleavage of 0.315. Variant A26C G32U has a self-cleavage of 0.196. A24U A26C gave a self-cleavage of 0.575. A24U A26G gave a self-cleavage of 0.79. A24U A26U gave a self-cleavage of 0.443. Work on A26U A49U yielded a self-cleavage of 0.0963. With A26U A49G the self-cleavage was 0.41. In the case of A24U A28C, the self-cleavage is reported as 0.449. In the case of A24U A64G, the self-cleavage is reported as 0.492. G25A G69C gave a self-cleavage of 0.228. Work on G25U C38G yielded a self-cleavage of 0.0734. With A26C G51A the self-cleavage was 0.67. A24G G69A gave a self-cleavage of 0.392. In the case of A26G G56U, the self-cleavage is reported as 0.151. With A26G G56C the self-cleavage was 0.14. Variant A26C C46G has a self-cleavage of 0.106. In the case of A26C U55A, the self-cleavage is reported as 0.194. Work on G25C A49G yielded a self-cleavage of 0.255. G25C A49U gave a self-cleavage of 0.21. Variant A26U A44U has a self-cleavage of 0.141. For A26U A44C, the self-cleavage was 0.0769. For A26U A44G, the self-cleavage was 0.288. For A26C A44U, the self-cleavage was 0.193. Work on G25U G51U yielded a self-cleavage of 0.671. Variant G25U G51A has a self-cleavage of 0.613. Work on G25U G57A yielded a self-cleavage of 0.145. A26C U63G gave a self-cleavage of 0.0806. Variant A24G G29C has a self-cleavage of 0.174. With A24G G29U the self-cleavage was 0.0932. In the case of A24U A31C, the self-cleavage is reported as 0.163. Work on G25A U58C yielded a self-cleavage of 0.581. Work on G25C G34U yielded a self-cleavage of 1.25. G25C G34A showed a self-cleavage of 0.821. Variant A26G U33A has a self-cleavage of 0.135. A26U C46G gave a self-cleavage of 0.317. A24U G32U gave a self-cleavage of 0.128. In the case of A26G U70A, the self-cleavage is reported as 1.06. With A26G U70G the self-cleavage was 0.81. G25C U60C showed a self-cleavage of 0.673. In the case of G25U C50A, the self-cleavage is reported as 0.283. For A26G U53G, the self-cleavage was 0.682. Variant A24U A47C has a self-cleavage of 0.3. Variant A24U A47G has a self-cleavage of 0.164. Variant A26U A39C has a self-cleavage of 0.225. Variant A26U A39G has a self-cleavage of 0.207. Variant A26G G27C has a self-cleavage of 0.215. G25U A71G showed a self-cleavage of 0.654. Variant A24U A61U has a self-cleavage of 0.187. G25A C65A showed a self-cleavage of 0.615. Variant G25A C65G has a self-cleavage of 0.215. A26U G51A gave a self-cleavage of 0.661. In the case of A26U G51C, the self-cleavage is reported as 0.447. With A26U G51U the self-cleavage was 0.614. Work on G25U A59U yielded a self-cleavage of 0.237. With G25C A31U the self-cleavage was 0.143. G25C A31C showed a self-cleavage of 0.168. Work on A26G U63G yielded a self-cleavage of 0.183. A24U G57U showed a self-cleavage of 0.188. With A26C C65A the self-cleavage was 0.614. Work on A26C C65U yielded a self-cleavage of 0.256. Variant A26G A61C has a self-cleavage of 0.173. In the case of A24U G69C, the self-cleavage is reported as 0.271. Variant A26U G40C has a self-cleavage of 0.0803. A26U A45U showed a self-cleavage of 0.245. For A26U A45G, the self-cleavage was 0.168. Work on G25U U58G yielded a self-cleavage of 0.439. Work on A26U C66A yielded a self-cleavage of 0.146. With A26U C66U the self-cleavage was 0.276. Variant G25A C66U has a self-cleavage of 0.239. A24U A39C gave a self-cleavage of 0.5. For A26U A64C, the self-cleavage was 0.15. A24U U53C showed a self-cleavage of 0.885. A24U U53A showed a self-cleavage of 1.03. With A26G C66G the self-cleavage was 0.353. G25C U62C gave a self-cleavage of 0.252. Variant G25C U62G has a self-cleavage of 0.0816. Variant G25A A30G has a self-cleavage of 0.188. G25A A30U showed a self-cleavage of 0.234. A26G C50G gave a self-cleavage of 0.211. In the case of G25A G34A, the self-cleavage is reported as 0.715. In the case of G25A G34U, the self-cleavage is reported as 1.11. G25A gave a self-cleavage of 0.634. With G25C the self-cleavage was 0.563. For G25U, the self-cleavage was 0.65. G25U U70G gave a self-cleavage of 0.613. In the case of G25U U70C, the self-cleavage is reported as 0.679. In the case of G25U U70A, the self-cleavage is reported as 0.432. A26U C38U gave a self-cleavage of 0.409. A26U C38G showed a self-cleavage of 0.109. A26C A59U gave a self-cleavage of 0.245. Work on G25A G40U yielded a self-cleavage of 0.153.
